Values quoted from earlier work in patent publication US20250341526A1, “NOVEL DYES” (Quantum-Si Incorporated, priority 2024, published 2025).
Where a chain is given by its changes, count along the chain named.

B1: PS620: amino acid recognition protein, SEQ ID NO: 180 (protein, listed as Saccharomyces cerevisiae)
chain: MGNMHIGTACTRLCFPSETIYYCFTCSTNPLYEICELCFDKEKHVNHSYVAKVVMRPEGRICHCGDPFAFNDPSDAFKCKN
B2: PS544: amino acid recognition protein, SEQ ID NO: 173 (protein, listed as Homo sapiens)
chain: MGPLGSLCGRVFKSGETTYSCRDCAIDPTCVLCMDCFQDSVHKNHRYKMHTSTGGGFCDCGDTEAWKTGPFCVNHEP
B3: Homo sapiens UBR2: amino acid recognition protein, SEQ ID NO: 174 (protein, listed as Homo sapiens)
chain: MGPLGSLCGRVFKVGEPTYSCRDCAVDPTCVLCMECFLGSIHRDHRYRMTTSGGGGFCDCGDTEAWKEGPYCQKHE
B4: PS618: amino acid recognition protein, SEQ ID NO: 178 (protein, listed as Zygosaccharomyces bailii)
chain: MNASHKGAMCSKQCYPTETVFYCFTCTTNPLYEICESCFDEEKHRGHLYTAKVVVRPEGRVCHCGDPFVFKEPRFAFLCKN
B5: PS622: amino acid recognition protein, SEQ ID NO: 182 (protein, listed as Kluyveromyces dobzhanskii)
chain: MHSRFNHAGRICASKFKVGEPIYRCKECSFDDTCVICVNCFNPKDHVGHHVYTSICSEFNNGICDCGDTEAWNHDMHCKADEN
B6: PS532: amino acid recognition protein, SEQ ID NO: 160 (protein, listed as Schizosaccharomyces cryophilus)
chain: MSCGRIFKKGEVFYRCKTCSVDSNSALCVKCFRATDHHGHETSFTISAGSGGCCDCGNSAAWIRDMPCKIHNR
B7: PS617: amino acid recognition protein, SEQ ID NO: 177 (protein, listed as Eremothecium sinecaudum)
chain: MPKEHRGTSCNKHCQPTETVYYCFDCTKNPLYEICEECFDADKHLGHRWTSKVVSRPEGKICHCGDPSGLTDPENGYECKN
B8: PS615: amino acid recognition protein, SEQ ID NO: 175 (protein, listed as Kluyveromyces marxianus)
chain: MVNEHRGSQCSKQCHGTETVYYCFDCTKNPLYEICEECFDETQHMGHRYTSRVVTRPEGKVCHCGDISGYNNPEKAFQCKI
B9: PS616: amino acid recognition protein, SEQ ID NO: 176 (protein, listed as Kluyveromyces lactis)
chain: B8 chain with V2H, E4D, E37D, T42S, M45I, G69S, N72D, E74K, K80R
B10: PS621: amino acid recognition protein, SEQ ID NO: 181 (protein, listed as Kluyveromyces marxianus)
chain: MHSKFSHAGRICGAKFKVGEPIYRCKECSFDDTCVLCVNCFNPKDHTGHHVYTTICTEFNNGICDCGDKEAWNHTLFCKAEEG
B11: PS624: amino acid recognition protein, SEQ ID NO: 184 (protein, listed as Eremothecium sinecaudum)
chain: MPKNHNHKGRNCGRSFQPGEPLYRCQECAYDDTCVLCIRCFNPLDHVNHHVSTHICSEFNDGICDCGDVEAWNVELNCKAEED
B12: PS538: amino acid recognition protein, SEQ ID NO: 166 (protein, listed as Saccharomyces cerevisiae)
chain: MGDVHKHTGRNCGRKFKIGEPLYRCHECGCDDTCVLCIHCFNPKDHVNHHVCTDICTEFTSGICDCGDEEAWNSPLHCKAEEQ
B13: PS625: amino acid recognition protein, SEQ ID NO: 185 (protein, listed as Saccharomyces eubayanus)
chain: B12 chain with V47I, T57S, P75S
B14: PS25: amino acid recognition protein, SEQ ID NO: 167 (protein, listed as Saccharomyces cerevisiae)
chain: B12 chain with D3S
B15: PS536: amino acid recognition protein, SEQ ID NO: 164 (protein, listed as Aphis gossypii)
chain: MVCGRVFKMGEPTYNCRECGMDSTCVLCVDCFKRSPHKNHKYKMGTSYGGGCCDCGDVEAWKHDPYCQTHKL
B16: PS537: amino acid recognition protein, SEQ ID NO: 165 (protein, listed as Aedes aegypti)
chain: MVCGRVFKIGEPTYSCRECSMDPTCVLCSSCFKKSSHRLHKYKMSTSGGGGCCDCGDHEAWKRDPSCEEHAV
B17: PS543: amino acid recognition protein, SEQ ID NO: 172 (protein, listed as Trichinella spiralis)
chain: MKCNRQLICGEPTYCCLDCACDQTCIFCHACFQSSEHKNHRYSMSTSEGSGTCDCGDKEAWKSNYYCLNHKP
B18: PS619: amino acid recognition protein, SEQ ID NO: 179 (protein, listed as Vanderwaltozyma polyspora)
chain: MENLHIGSCCNRQCYPTQTVYYCLTCTINPLYEICELCFDEDKHVGHTYISKSVIRPEGKVCHCGNPNVFKKPEFAFNCKN
B19: PS541: amino acid recognition protein, SEQ ID NO: 170 (protein)
chain: MRCGHIFRAGEATYRCITCAADDTCVLCSRCFDASDHTGHQYQISLSSGNCGCCDCGDEEAWRLPLFCAIHTD
modifications: Aspergillus neoniger
B20: PS540: amino acid recognition protein, SEQ ID NO: 169 (protein, listed as Clathrospora elynae)
chain: MPCGHIFKNGEATYRCKTCTADDTCVLCARCFDASDHEGHQVFVSVSPGNSGCCDCGDDEAWVRPVHCNMHSA
B21: PS623: amino acid recognition protein, SEQ ID NO: 183 (protein, listed as Kazachstania naganishii)
chain: MSKQFRHKGRNCGRKFRLGEPLYRCQECGYDDTCVLCINCFNPKDHEGHHIYTDICNDFTSGICDCGDEEAWLSPLHCKAEED
B22: PS533: amino acid recognition protein, SEQ ID NO: 161 (protein, listed as Contarinia nasturtii)
chain: MVCGRVFKMNEPFYSCRECGMDPTCVLCVNCFKQSAHRHHKYKMGTSAGGGCCDCGDNEAWKQDHYCDEHTK
B23: PS531: amino acid recognition protein, SEQ ID NO: 159 (protein, listed as Musca domestica)
chain: MVCGKVFKIGEPTYSCRECGMDQTCVLCVNCFKQSAHRYHKYKMSTSGGGGCCDCGDEEAWKKDHYCEEHLR
B24: PS542: amino acid recognition protein, SEQ ID NO: 171 (protein, listed as Trichuris suis)
chain: MRCNHVFANGEATYSCRGCAADPTCVLCASCFELSAHKEHKYMITTSSGTGYCDCGDPEAWKADPFCQQHQP
B25: PS627: amino acid recognition protein, SEQ ID NO: 187 (protein, listed as Zygosaccharomyces mellis)
chain: MPKYHQHSGRYCGRKFKVGEPIYRCHECGFDETCVICIHCFNAKDHETHHVSVSICSEYSTGICDCGDTEAFVNPLHCRAEEV
B26: PS535: amino acid recognition protein, SEQ ID NO: 163 (protein, listed as Mus musculus)
chain: MLCGRVFKVGEPTYSCRDCAVDPTCVLCMECFLGSIHRDHRYRMTTSGGGGFCDCGDTEAWKEGPYCQKHKL
B27: PS629: amino acid recognition protein, SEQ ID NO: 189 (protein, listed as Pichia pastoris)
chain: MCPNYKHHGRPCARQFKQGEPIYRCYECGFDETCVMCMHCFNREQHRDHEVSISIASSSNDGICDCGDPQAWNIELHCQSELD
B28: PS534: amino acid recognition protein, SEQ ID NO: 162 (protein)
chain: MKCGHIFRKGEVFYRCKTCSVDSNSALCVKCFRATSHKDHETSFTVSAGSGGCCDCGNAAAWIGDVSCKIHSH
modifications: Schizosaccharomyces pombe
B29: PS626: amino acid recognition protein, SEQ ID NO: 186 (protein, listed as Zygosaccharomyces parabailii)
chain: MYHVYKHSGRNCGRKFKVGEPIYRCHECGYDETCVLCIHCFNPKDHDSHHVYIDICSEFSTGICDCGDTEAFVNPLHCKAEED
B30: PS539: amino acid recognition protein, SEQ ID NO: 168 (protein, listed as Kazachstania africana)
chain: MQTSFTHKGRNCGRKFKVGEPLYRCHECGFDDTCVLCIHCFNPADHENHHIYTDICNDFTSGICDCGDTEAWNGDLHCKAEEI
B31: PS628: amino acid recognition protein, SEQ ID NO: 188 (protein)
chain: MSHRAYHKNSPCGRIFRKGEPIHRCLTCGFDDTCALCSHCFQPEYHEGHKVHIGICQRENGGVCDCGDPEAWTQELFCPYAVD
modifications: Candida albicans

Test system: amino acid at a terminal position of a polypeptide
Conditions: Table 2; amino acid at terminal position (phosphotyrosine also internal); inferred from literature and/or demonstrated by the inventors; cited from earlier work

Row | Molecule | Binding Pref.
1 | B1 | K, R, H
2 | B2 | K, R, H
3 | B3 | K, R, H
4 | B4 | K, R, H
5 | B5 | K, R, H
6 | B6 | K, R, H
7 | B7 | K, R, H
8 | B8 | K, R, H
9 | B9 | K, R, H
10 | B10 | K, R, H
11 | B11 | K, R, H
12 | B12 | K, R, H
13 | B13 | K, R, H
14 | B14 | K, R, H
15 | B15 | K, R, H
16 | B16 | K, R, H

Row | Molecule | Binding Pref.
17 | B17 | K, R, H
18 | B18 | K, R, H
19 | B19 | K, R, H
20 | B20 | K, R, H
21 | B21 | K, R, H
22 | B22 | K, R, H
23 | B23 | K, R, H
24 | B24 | K, R, H
25 | B25 | K, R, H
26 | B26 | K, R, H
27 | B27 | K, R, H
28 | B28 | K, R, H
29 | B29 | K, R, H
30 | B30 | K, R, H
31 | B31 | K, R, H
